Measured values: paper PMC2830194

Assays:
[1] = molecular target: Full length His-Cpn0859 (C. pneumoniae); test: cross-linking
[2] = molecular target: FlhA (Cpn0363), putative flagellar integral membrane protein, full length, bacterial-2-hybrid fusion (C. pneumoniae); test: two-hybrid; bacterial-2-hybrid in E. coli DHP-1, proteins fused to adenylate cyclase fragments from pT18 and pT25; β-galactosidase activity, in triplicate; cut off for a positive interaction 577 units (table footnote; 677 in the methods)
[3] = molecular target: CopN, putative T3S plug protein, bacterial-2-hybrid fusion (C. pneumoniae); test: two-hybrid
[4] = molecular target: CdsL, putative T3S ATPase tethering protein, bacterial-2-hybrid fusion (C. pneumoniae); test: two-hybrid; bacterial-2-hybrid in E. coli DHP-1, proteins fused to adenylate cyclase fragments from pT18 and pT25; β-galactosidase activity, in triplicate; cut off for a positive interaction 577 units (table footnote; 677 in the methods)
[5] = molecular target: CdsD-FHA-2, bacterial-2-hybrid fusion (positive control) (C. pneumoniae); test: as above

Substance	β-galactosidase activity (units/mg bacteria) [2]	further results
Full length His-Cpn0859 (natural protein)		stoichiometry N [1]: 2
CdsL, putative T3S ATPase tethering protein, bacterial-2-hybrid fusion (natural protein)	832	
FliI (Cpn0858), putative flagellar ATPase, bacterial-2-hybrid fusion (enzyme)	943	β-galactosidase activity (units/mg bacteria) [3]: 943; β-galactosidase activity (units/mg bacteria) [4]: 874
FliF (Cpn0860), putative flagellar MS ring protein, full length, bacterial-2-hybrid fusion (natural protein)	847	
PknD, bacterial-2-hybrid fusion (positive control) (natural protein)		β-galactosidase activity (units/mg bacteria) [5]: 996
Cpn0322 (putative CdsU, YscU ortholog), bacterial-2-hybrid fusion (natural protein)	780	
